# Data as given in US20090280138A1 (OXFORD BIOMEDICA UK, published 2009).
# Target: T1, MHC class I allele A*0101 monomer (human, biotinylated, bound to streptavidin-coated plate)
# T1 construct: placeholder peptide and b2M removed, then reconstituted with test peptide and fresh b2M; also called A1; HLA-A1
# Test: iTopia, multiparametric iScore
# Description: (§1) The 9 mers were tested for Peptide Binding, Off Rate and Affinity using iTopia Epitope Discovery System in accordance with the manufacturer's instructions. Briefly, 96 well microtitre plates coated with MHC molecules representing different MHC alleles are used to identify candidate peptides. […] Determinations are performed in duplicate using an ELISA plate reader and included allele specific positive controls.
# (§2) Finally, multiparametric analysis is performed on the results from these assays and an iScore is generated. The iScore represents a measure of the overall quality of peptide-MHC binding, enabling candidate peptides to be ranked in order of binding quality and allowing rational prioritisation of peptides for functional cellular follow-up studies.
row,Binder,iScore
1,EKMRNRVLL [5T4 9-mer peptide 164],0
2,IRVFLDNNP [5T4 9-mer peptide 144],0
3,PWVCDCHMA [5T4 9-mer peptide 148],0
4,CAYPEKMRN [5T4 9-mer peptide 162],0
5,VQGKDRLTC [5T4 9-mer peptide 158],0
6,LKETEVVQG [5T4 9-mer peptide 155],0
7,IFLLVLYLN [5T4 9-mer peptide 185],0
8,SADLDCDPI [5T4 9-mer peptide 170],0
9,SYVFLGIVL [5T4 9-mer peptide 178],0
10,AELQGLPHI [5T4 9-mer peptide 140],0
11,DRLTCAYPE [5T4 9-mer peptide 160],0
12,MRNRVLLEL [5T4 9-mer peptide 165],0
13,LGIVLALIG [5T4 9-mer peptide 180],0
14,QTSYVFLGI [5T4 9-mer peptide 177],0.027
15,RDACRDHME [5T4 9-mer peptide 195],0
16,LQGLPHIRV [5T4 9-mer peptide 141],0
17,IKKWMHNIR [5T4 9-mer peptide 191],0
18,YLNRKGIKK [5T4 9-mer peptide 188],0
19,NRVLLELNS [5T4 9-mer peptide 166],0
20,TLAELQGLP [5T4 9-mer peptide 139],0
21,KWMHNIRDA [5T4 9-mer peptide 192],0
22,GAIFLLVLY [5T4 9-mer peptide 184],0
23,GKDRLTCAY [5T4 9-mer peptide 159],0

row,Binder,iScore
1,TWLKETEVV [5T4 9-mer peptide 154],0
2,ETEVVQGKD [5T4 9-mer peptide 156],0
3,LNSADLDCD [5T4 9-mer peptide 169],0
4,DCHMADMVT [5T4 9-mer peptide 150],0
5,PHIRVFLDN [5T4 9-mer peptide 143],0
6,VLLELNSAD [5T4 9-mer peptide 167],0
7,DPILPPSLQ [5T4 9-mer peptide 173],0
8,EVVQGKDRL [5T4 9-mer peptide 157],0
9,PPSLQTSYV [5T4 9-mer peptide 175],0
10,MHNIRDACR [5T4 9-mer peptide 193],0
11,NNPWVCDCH [5T4 9-mer peptide 147],0
12,KGIKKWMHN [5T4 9-mer peptide 190],0
13,ADMVTWLKE [5T4 9-mer peptide 152],0
14,VFLDNNPWV [5T4 9-mer peptide 145],0
15,NRKGIKKWM [5T4 9-mer peptide 189],0
16,DCDPILPPS [5T4 9-mer peptide 172],0
17,DLDCDPILP [5T4 9-mer peptide 171],0
18,VCDCHMADM [5T4 9-mer peptide 149],0
19,LDNNPWVCD [5T4 9-mer peptide 146],0
20,MVTWLKETE [5T4 9-mer peptide 153],0
21,NIRDACRDH [5T4 9-mer peptide 194],0
22,LELNSADLD [5T4 9-mer peptide 168],0

# Target: T2, MHC class I allele A*0201 monomer (human, biotinylated, bound to streptavidin-coated plate)
# T2 construct: also called A2; HLA-A2
# Test: iTopia, multiparametric iScore
# Description: as §1, §2
row,Binder,iScore
1,EKMRNRVLL [5T4 9-mer peptide 164],0.096
2,IRVFLDNNP [5T4 9-mer peptide 144],0
3,PWVCDCHMA [5T4 9-mer peptide 148],0
4,CAYPEKMRN [5T4 9-mer peptide 162],0
5,VQGKDRLTC [5T4 9-mer peptide 158],0.074
6,LKETEVVQG [5T4 9-mer peptide 155],0
7,IFLLVLYLN [5T4 9-mer peptide 185],0
8,SADLDCDPI [5T4 9-mer peptide 170],0
9,SYVFLGIVL [5T4 9-mer peptide 178],0.118
10,AELQGLPHI [5T4 9-mer peptide 140],0
11,DRLTCAYPE [5T4 9-mer peptide 160],0
12,MRNRVLLEL [5T4 9-mer peptide 165],0
13,LGIVLALIG [5T4 9-mer peptide 180],0
14,QTSYVFLGI [5T4 9-mer peptide 177],0.127
15,RDACRDHME [5T4 9-mer peptide 195],0.08
16,LQGLPHIRV [5T4 9-mer peptide 141],0.2
17,IKKWMHNIR [5T4 9-mer peptide 191],0.181
18,YLNRKGIKK [5T4 9-mer peptide 188],0.118
19,NRVLLELNS [5T4 9-mer peptide 166],0.031
20,TLAELQGLP [5T4 9-mer peptide 139],0.083
21,KWMHNIRDA [5T4 9-mer peptide 192],0.45
22,GAIFLLVLY [5T4 9-mer peptide 184],0
23,GKDRLTCAY [5T4 9-mer peptide 159],0

row,Binder,iScore
1,TWLKETEVV [5T4 9-mer peptide 154],0.184
2,ETEVVQGKD [5T4 9-mer peptide 156],0
3,LNSADLDCD [5T4 9-mer peptide 169],0
4,DCHMADMVT [5T4 9-mer peptide 150],0
5,PHIRVFLDN [5T4 9-mer peptide 143],0
6,VLLELNSAD [5T4 9-mer peptide 167],0.105
7,DPILPPSLQ [5T4 9-mer peptide 173],0
8,EVVQGKDRL [5T4 9-mer peptide 157],0.139
9,PPSLQTSYV [5T4 9-mer peptide 175],0.145
10,MHNIRDACR [5T4 9-mer peptide 193],0.093
11,NNPWVCDCH [5T4 9-mer peptide 147],0
12,KGIKKWMHN [5T4 9-mer peptide 190],0
13,ADMVTWLKE [5T4 9-mer peptide 152],0
14,VFLDNNPWV [5T4 9-mer peptide 145],0.239
15,NRKGIKKWM [5T4 9-mer peptide 189],0.138
16,DCDPILPPS [5T4 9-mer peptide 172],0
17,DLDCDPILP [5T4 9-mer peptide 171],0
18,VCDCHMADM [5T4 9-mer peptide 149],0.061
19,LDNNPWVCD [5T4 9-mer peptide 146],0
20,MVTWLKETE [5T4 9-mer peptide 153],0.051
21,NIRDACRDH [5T4 9-mer peptide 194],0
22,LELNSADLD [5T4 9-mer peptide 168],0

# Target: T3, MHC class I allele A*0301 monomer (human, biotinylated, bound to streptavidin-coated plate)
# T3 construct: also called A3; HLA-A3
# Test: iTopia, multiparametric iScore
# Description: as §1, §2
row,Binder,iScore
1,EKMRNRVLL [5T4 9-mer peptide 164],0
2,IRVFLDNNP [5T4 9-mer peptide 144],0
3,PWVCDCHMA [5T4 9-mer peptide 148],0
4,CAYPEKMRN [5T4 9-mer peptide 162],0
5,VQGKDRLTC [5T4 9-mer peptide 158],0
6,LKETEVVQG [5T4 9-mer peptide 155],0
7,IFLLVLYLN [5T4 9-mer peptide 185],0
8,SADLDCDPI [5T4 9-mer peptide 170],0
9,SYVFLGIVL [5T4 9-mer peptide 178],0
10,AELQGLPHI [5T4 9-mer peptide 140],0
11,DRLTCAYPE [5T4 9-mer peptide 160],0
12,MRNRVLLEL [5T4 9-mer peptide 165],0
13,LGIVLALIG [5T4 9-mer peptide 180],0
14,QTSYVFLGI [5T4 9-mer peptide 177],0
15,RDACRDHME [5T4 9-mer peptide 195],0
16,LQGLPHIRV [5T4 9-mer peptide 141],0
17,IKKWMHNIR [5T4 9-mer peptide 191],0
18,YLNRKGIKK [5T4 9-mer peptide 188],0.065
19,NRVLLELNS [5T4 9-mer peptide 166],0
20,TLAELQGLP [5T4 9-mer peptide 139],0
21,KWMHNIRDA [5T4 9-mer peptide 192],0
22,GAIFLLVLY [5T4 9-mer peptide 184],0
23,GKDRLTCAY [5T4 9-mer peptide 159],0

row,Binder,iScore
1,TWLKETEVV [5T4 9-mer peptide 154],0
2,ETEVVQGKD [5T4 9-mer peptide 156],0
3,LNSADLDCD [5T4 9-mer peptide 169],0
4,DCHMADMVT [5T4 9-mer peptide 150],0
5,PHIRVFLDN [5T4 9-mer peptide 143],0
6,VLLELNSAD [5T4 9-mer peptide 167],0
7,DPILPPSLQ [5T4 9-mer peptide 173],0
8,EVVQGKDRL [5T4 9-mer peptide 157],0
9,PPSLQTSYV [5T4 9-mer peptide 175],0
10,MHNIRDACR [5T4 9-mer peptide 193],0
11,NNPWVCDCH [5T4 9-mer peptide 147],0.051
12,KGIKKWMHN [5T4 9-mer peptide 190],0
13,ADMVTWLKE [5T4 9-mer peptide 152],0
14,VFLDNNPWV [5T4 9-mer peptide 145],0
15,NRKGIKKWM [5T4 9-mer peptide 189],0
16,DCDPILPPS [5T4 9-mer peptide 172],0
17,DLDCDPILP [5T4 9-mer peptide 171],0
18,VCDCHMADM [5T4 9-mer peptide 149],0
19,LDNNPWVCD [5T4 9-mer peptide 146],0
20,MVTWLKETE [5T4 9-mer peptide 153],0
21,NIRDACRDH [5T4 9-mer peptide 194],0
22,LELNSADLD [5T4 9-mer peptide 168],0

# Target: T4, MHC class I allele B*0702 monomer (human, biotinylated, bound to streptavidin-coated plate)
# T4 construct: also called B7; HLA-B7
# Test: iTopia, multiparametric iScore
# Description: as §1, §2
row,Binder,iScore
1,EKMRNRVLL [5T4 9-mer peptide 164],0
2,IRVFLDNNP [5T4 9-mer peptide 144],0
3,PWVCDCHMA [5T4 9-mer peptide 148],0
4,CAYPEKMRN [5T4 9-mer peptide 162],0
5,VQGKDRLTC [5T4 9-mer peptide 158],0
6,LKETEVVQG [5T4 9-mer peptide 155],0
7,IFLLVLYLN [5T4 9-mer peptide 185],0
8,SADLDCDPI [5T4 9-mer peptide 170],0
9,SYVFLGIVL [5T4 9-mer peptide 178],0.045
10,AELQGLPHI [5T4 9-mer peptide 140],0
11,DRLTCAYPE [5T4 9-mer peptide 160],0
12,MRNRVLLEL [5T4 9-mer peptide 165],0
13,LGIVLALIG [5T4 9-mer peptide 180],0
14,QTSYVFLGI [5T4 9-mer peptide 177],0
15,RDACRDHME [5T4 9-mer peptide 195],0
16,LQGLPHIRV [5T4 9-mer peptide 141],0
17,IKKWMHNIR [5T4 9-mer peptide 191],0
18,YLNRKGIKK [5T4 9-mer peptide 188],0.089
19,NRVLLELNS [5T4 9-mer peptide 166],0
20,TLAELQGLP [5T4 9-mer peptide 139],0
21,KWMHNIRDA [5T4 9-mer peptide 192],0
22,GAIFLLVLY [5T4 9-mer peptide 184],0
23,GKDRLTCAY [5T4 9-mer peptide 159],0

row,Binder,iScore
1,TWLKETEVV [5T4 9-mer peptide 154],0
2,ETEVVQGKD [5T4 9-mer peptide 156],0
3,LNSADLDCD [5T4 9-mer peptide 169],0
4,DCHMADMVT [5T4 9-mer peptide 150],0
5,PHIRVFLDN [5T4 9-mer peptide 143],0
6,VLLELNSAD [5T4 9-mer peptide 167],0
7,DPILPPSLQ [5T4 9-mer peptide 173],0
8,EVVQGKDRL [5T4 9-mer peptide 157],0
9,PPSLQTSYV [5T4 9-mer peptide 175],0
10,MHNIRDACR [5T4 9-mer peptide 193],0
11,NNPWVCDCH [5T4 9-mer peptide 147],0
12,KGIKKWMHN [5T4 9-mer peptide 190],0
13,ADMVTWLKE [5T4 9-mer peptide 152],0
14,VFLDNNPWV [5T4 9-mer peptide 145],0
15,NRKGIKKWM [5T4 9-mer peptide 189],0
16,DCDPILPPS [5T4 9-mer peptide 172],0
17,DLDCDPILP [5T4 9-mer peptide 171],0
18,VCDCHMADM [5T4 9-mer peptide 149],0
19,LDNNPWVCD [5T4 9-mer peptide 146],0
20,MVTWLKETE [5T4 9-mer peptide 153],0
21,NIRDACRDH [5T4 9-mer peptide 194],0
22,LELNSADLD [5T4 9-mer peptide 168],0
